Measurements: PMC4514735, “The FKBP52 Cochaperone Acts in Synergy with β-Catenin to Potentiate Androgen Receptor Signaling” (PLoS ONE, 2015)

Target: T1, Gal4 DNA binding domain (DBD)-AR LBD chimeric protein (UniProt P10275 669-920)
T1 construct: also called Gal4-AR LBD; Gal4-DBD fused to the AR LBD; source: in cells (two-hybrid) and in lysate (co-IP)
T1 sequence (looked up): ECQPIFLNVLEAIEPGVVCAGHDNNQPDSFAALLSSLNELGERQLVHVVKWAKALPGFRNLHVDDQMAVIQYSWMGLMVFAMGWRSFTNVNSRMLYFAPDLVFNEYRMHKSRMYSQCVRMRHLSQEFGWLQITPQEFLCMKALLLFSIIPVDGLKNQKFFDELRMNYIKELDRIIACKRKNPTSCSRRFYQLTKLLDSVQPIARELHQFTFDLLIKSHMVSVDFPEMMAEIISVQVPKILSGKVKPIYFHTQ
Assay: two-hybrid; mammalian two-hybrid in 293T cells, Gal4-tk-luc reporter, 10 nM DHT, with FKBP52 overexpressed
Conditions: partners not purified

B1: VP16-AD fused to the full-length β-catenin (natural protein, UniProt P35222 1-781, looked up)
chain: MATQADLMELDMAMEPDRKAAVSHWQQQSYLDSGIHSGATTTAPSLSGKGNPEEEDVDTSQVLYEWEQGFSQSFTQEQVADIDGQYAMTRAQRVRAAMFPETLDEGMQIPSTQFDAAHPTNVQRLAEPSQMLKHAVVNLINYQDDAELATRAIPELTKLLNDEDQVVVNKAAVMVHQLSKKEASRHAIMRSPQMVSAIVRTMQNTNDVETARCTAGTLHNLSHHREGLLAIFKSGGIPALVKMLGSPVDSVLFYAITTLHNLLLHQEGAKMAVRLAGGLQKMVALLNKTNVKFLAITTDCLQILAYGNQESKLIILASGGPQALVNIMRTYTYEKLLWTTSRVLKVLSVCSSNKPAIVEAGGMQALGLHLTDPSQRLVQNCLWTLRNLSDAATKQEGMEGLLGTLVQLLGSDDINVVTCAAGILSNLTCNNYKNKMMVCQVGGIEALVRTVLRAGDREDITEPAICALRHLTSRHQEAEMAQNAVRLHYGLPVVVKLLHPPSHWPLIKATVGLIRNLALCPANHAPLREQGAIPRLVQLLVRAHQDTQRRTSMGGTQQQFVEGVRMEEIVEGCTGALHILARDVHNRIVIRGLNTIPLFVQLLYSPIENIQRVAAGVLCELAQDKEAAEAIEAEGATAPLTELLHSRNEGVATYAAAVLFRMSEDKPQDYKKRLSVELTSSLFRTEPMAWNETADLGLDIGAQGEPLGYRQDDPSYRSFHSGGYGQDALGMDPMMEHEMGGHHPGADYPVDGLPDLGHAQDLMDGLPPGDSNQLAWFDTDL
notes: β-catenin, full length; NheI-XbaI fragment of pCI-neo-β-catenin inserted into the pACT vector (Promega); also called Vp16-β-catenin; VP16-β-catenin
In the case of B1, the “fold enhancement of the two-hybrid signal by overexpressed FKBP52” value is reported as 4.5 fold.
